Experimental data taken from patent publication US20230340607A1 (UNIVERSITY OF PITTSBURGH OF THE COMMONWEALTH SYSTEM OF …, published 2023).

How the values were obtained:
c-Src = c-Src (UniProt P12931 2-536); assay: co-immunoprecipitation with anti-RAD51AP1 antibody from T47D cell lysate, immunoblot
Procedure: (§1) To identify the key molecules important for RAD51AP1-DYRK4 to modulate MEK signaling, the RAD51AP1 interactants were investigated with the Entrez Gene database. […] Immuno-precipitation was performed using the RAD51AP1 antibody in the T47D cells overexpressing E9-E2 or wtRAD51AP1.
(§2) Immunoprecipitation. The cells were seeded in 10 cm² dishes with 200 ng/ml for one week. After one week doxycycline treatment, doxycycline-induced T47D OE cells were freshly harvested and lysed in NETN-400 buffer ([…] Tris-HCL, pH 8.0, […] NaCl, 1 mM EDTA, and 0.5% Nonidet P-40) for 25 minutes on ice and then centrifugated for 25 minutes at 14,500 rpm. The supernatants were diluted with the same buffer without NaCl (NETN-0) to obtain a final concentration of NaCl at 150 mM and incubated with indicated antibodies for 2 hours at 4° C., and then added protein-G beads (Santa Cruz) overnight. The beads were washed three times with cell lysis buffer and the precipitated proteins were subjected to western blot analysis.

integrin β1 = target: T1, integrin β1 (UniProt P05556 21-798); assay: as above
T1 construct: also called ITGB1; integrin B1
Procedure: as §1, §2

T1 sequence (P05556 21-798 limits assumed): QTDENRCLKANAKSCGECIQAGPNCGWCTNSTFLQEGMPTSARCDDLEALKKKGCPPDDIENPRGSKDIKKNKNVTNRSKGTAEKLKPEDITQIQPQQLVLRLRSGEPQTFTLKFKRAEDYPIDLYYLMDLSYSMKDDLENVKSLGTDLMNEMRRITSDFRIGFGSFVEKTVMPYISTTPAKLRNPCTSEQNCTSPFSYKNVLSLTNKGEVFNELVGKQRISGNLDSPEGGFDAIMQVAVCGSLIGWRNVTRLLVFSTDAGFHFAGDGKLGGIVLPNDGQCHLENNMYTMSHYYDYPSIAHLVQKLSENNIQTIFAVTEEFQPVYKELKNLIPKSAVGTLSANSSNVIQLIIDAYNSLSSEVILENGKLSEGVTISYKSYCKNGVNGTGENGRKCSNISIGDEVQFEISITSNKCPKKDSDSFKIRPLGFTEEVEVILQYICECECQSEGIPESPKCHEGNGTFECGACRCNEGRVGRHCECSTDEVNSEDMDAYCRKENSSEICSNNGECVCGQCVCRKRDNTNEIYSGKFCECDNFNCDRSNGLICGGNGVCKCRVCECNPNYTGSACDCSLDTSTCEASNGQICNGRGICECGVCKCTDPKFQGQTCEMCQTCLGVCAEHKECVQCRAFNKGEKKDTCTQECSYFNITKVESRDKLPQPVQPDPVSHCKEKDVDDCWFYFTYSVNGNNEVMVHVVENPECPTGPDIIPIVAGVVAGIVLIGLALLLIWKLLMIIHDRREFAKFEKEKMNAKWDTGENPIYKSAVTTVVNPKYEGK

B1: RAD51AP1-DYRK4 fusion protein (E9-E2 variant) (other)
chain: MVRPVRHKKPVNYSQFDHSDSDDDFVSATVPLNKKSRTAPKELKQDKPKPNLNNLRKEEIPVQEKTPKKRMALDDKLYQRDLEVALALSVKELPTVTTNVQNSQDKSIEKHGSSKIETMNKSPHISNCSVASDYLDLDKITVEDDVGGVQGKRKAASKAAAQQRKILLEGSDGDSANDTEPDFAPGEDSEDDSDFCESEDNDEDFSMRKSKVKEIKKKEVKVKSPVEKKEKKSKSKCNALVTSVDSAPAAVKSESQSLPKKVSLSSDTTRKPLEIRSPSAESKKPKWVPPGLKWMLKSQGNVI
notes: Expressed from a doxycycline-inducible lentiviral vector in T47D cells (co-IP, western blot), or endogenous in MDAMB361 cells (western blot); also called E9-E2 protein; E9E2 fusion
B1: no binding (c-Src); no binding (integrin β1).
